{
  "source": "patent US20100022624",
  "proteins": {"B1": {"name": "HDAC6 (human, endogenous) (protein)", "chain": "MTSTGQDSTTTRQRRSRQNPQSPPQDSSVTSKRNIKKGAVPRSIPNLAEVKKKGKMKKLGQAMEEDLIVGLQGMDLNLEAEALAGTGLVLDEQLNEFHCLWDDSFPEGPERLHAIKEQLIQEGLLDRCVSFQARFAEKEELMLVHSLEYIDLMETTQYMNEGELRVLADTYDSVYLHPNSYSCACLASGSVLRLVDAVLGAEIRNGMAIIRPPGHHAQHSLMDGYCMFNHVAVAARYAQQKHRIRRVLIVDWDVHHGQGTQFTFDQDPSVLYFSIHRYEQGRFWPHLKASNWSTTGFGQGQGYTINVPWNQVGMRDADYIAAFLHVLLPVALEFQPQLVLVAAGFDALQGDPKGEMAATPAGFAQLTHLLMGLAGGKLILSLEGGYNLRALAEGVSASLHTLLGDPCPMLESPGAPCRSAQASVSCALEALEPFWEVLVRSTETVERDNMEEDNVEESEEEGPWEPPVLPILTWPVLQSRTGLVYDQNMMNHCNLWDSHHPEVPQRILRIMCRLEELGLAGRCLTLTPRPATEAELLTCHSAEYVGHLRATEKMKTRELHRESSNFDSIYICPSTFACAQLATGAACRLVEAVLSGEVLNGAAVVRPPGHHAEQDAACGFCFFNSVAVAARHAQTISGHALRILIVDWDVHHGNGTQHMFEDDPSVLYVSLHRYDHGTFFPMGDEGASSQIGRAAGTGFTVNVAWNGPRMGDADYLAAWHRLVLPIAYEFNPELVLVSAGFDAARGDPLGGCQVSPEGYAHLTHLLMGLASGRIILILEGGYNLTSISESMAACTRSLLGDPPPLLTLPRPPLSGALASITETIQVHRRYWRSLRVMKVEDREGPSSSKLVTKKAPQPAKPRLAERMTTREKKVLEAGMGKVTSASFGEESTPGQTNSETAVVALTQDQPSEAATGGATLAQTISEAAIGGAMLGQTTSEEAVGGATPDQTTSEETVGGAILDQTTSEDAVGGATLGQTTSEEAVGGATLAQTTSEAAMEGATLDQTTSEEAPGGTELIQTPLASSTDHQTPPTSPVQGTTPQISPSTLIGSLRTLELGSESQGASESQAPGEENLLGEAAGGQDMADSMLMQGSRGLTDQAIFYAVTPLPWCPHLVAVCPIPAAGLDVTQPCGDCGTIQENWVCLSCYQVYCGRYINGHMLQHHGNSGHPLVLSYIDLSAWCYYCQAYVHHQALLDVKNIAHQNKFGEDMPHPH"}},
  "molecular_target": "α-tubulin (human, endogenous)",
  "data": [
    {"protein": "B1", "values": [
      {"measurement": "amount of acetylated α-tubulin (immunoblot) after HDAC6 siRNA", "result": "only HSMCs transfected with siRNAs specific for HDAC6 displayed increased levels of acetylated α-tubulin"}
    ]}
  ]
}
